The target of the test is T1, GST-CESA3CD (catalytic domain of cellulose synthase CESA3 fused to GST) (Arabidopsis thaliana, UniProt Q941L0 305-843).
T1 sequence (looked up): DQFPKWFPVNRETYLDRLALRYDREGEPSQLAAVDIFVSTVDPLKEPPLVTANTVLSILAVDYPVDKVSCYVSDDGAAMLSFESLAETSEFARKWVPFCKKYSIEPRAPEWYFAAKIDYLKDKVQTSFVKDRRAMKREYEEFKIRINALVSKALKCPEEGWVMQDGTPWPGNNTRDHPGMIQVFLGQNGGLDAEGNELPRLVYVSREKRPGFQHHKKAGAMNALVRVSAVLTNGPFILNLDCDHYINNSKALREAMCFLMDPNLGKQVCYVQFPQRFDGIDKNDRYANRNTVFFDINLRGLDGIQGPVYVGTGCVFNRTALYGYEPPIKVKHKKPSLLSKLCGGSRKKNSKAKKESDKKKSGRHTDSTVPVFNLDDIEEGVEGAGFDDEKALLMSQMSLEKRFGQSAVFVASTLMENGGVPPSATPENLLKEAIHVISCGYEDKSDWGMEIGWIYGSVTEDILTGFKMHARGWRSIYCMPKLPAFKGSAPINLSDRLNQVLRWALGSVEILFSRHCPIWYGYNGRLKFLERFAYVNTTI
Description: pull-down.

The values that follow come from paper doi:10.1101/2023.02.01.526621 (bioRxiv, 2023).

B1: His-tagged full-length CALCIUM-DEPENDENT PROTEIN KINASE32 (His-CPK32) (enzyme, Arabidopsis thaliana, UniProt Q6NLQ6 1-538, looked up)
chain: MGNCCGTAGSLAQNDNKPKKGRKKQNPFSIDYGLHHGGGDGGGRPLKLIVLNDPTGREIESKYTLGRELGRGEFGVTYLCTDKETDDVFACKSILKKKLRTAVDIEDVRREVEIMRHMPEHPNVVTLKETYEDEHAVHLVMELCEGGELFDRIVARGHYTERAAAAVTKTIMEVVQVCHKHGVMHRDLKPENFLFGNKKETAPLKAIDFGLSVFFKPGERFNEIVGSPYYMAPEVLKRNYGPEVDIWSAGVILYILLCGVPPFWAETEQGVAQAIIRSVLDFRRDPWPKVSENAKDLIRKMLDPDQKRRLTAQQVLDHPWLQNAKTAPNVSLGETVRARLKQFTVMNKLKKRALRVIAEHLSDEEASGIREGFQIMDTSQRGKINIDELKIGLQKLGHAIPQDDLQILMDAGDIDRDGYLDCDEFIAISVHLRKMGNDEHLKKAFAFFDQNNNGYIEIEELREALSDELGTSEEVVDAIIRDVDTDKDGRISYEEFVTMMKTGTDWRKASRQYSRERFNSISLKLMQDASLQVNGDTR
As for B1, the binding result is reported as “binds”.
